Source: US11230591

Experiments:
[1] = target: recombinant pentameric gH complex (Towne strain) (human cytomegalovirus, Towne strain) (UniProt P17176); assay: BLI competition on His-pentamer; competitor (antibody 2): 2-25
[2] = target: recombinant pentameric gH complex (Towne strain) (human cytomegalovirus, Towne strain) (UniProt P17176); assay: BLI competition on His-pentamer; competitor (antibody 2): 1-150
[3] = target: recombinant pentameric gH complex (Towne strain) (human cytomegalovirus, Towne strain) (UniProt P17176); assay: BLI competition on His-pentamer; competitor (antibody 2): 3-7
[4] = target: recombinant pentameric gH complex (Towne strain) (human cytomegalovirus, Towne strain) (UniProt P17176); assay: BLI competition on His-pentamer; competitor (antibody 2): 324.4
[5] = target: recombinant pentameric gH complex (Towne strain) (human cytomegalovirus, Towne strain) (UniProt P17176); assay: BLI competition on His-pentamer; competitor (antibody 2): 1-85
[6] = target: recombinant pentameric gH complex (Towne strain) (human cytomegalovirus, Towne strain) (UniProt P17176); assay: BLI competition on His-pentamer; competitor (antibody 2): 1-103
[7] = target: recombinant pentameric gH complex (Towne strain) (human cytomegalovirus, Towne strain) (UniProt P17176); assay: BLI competition on His-pentamer; competitor (antibody 2): 3-16
[8] = target: recombinant pentameric gH complex (Towne strain) (human cytomegalovirus, Towne strain) (UniProt P17176); assay: BLI competition on His-pentamer; competitor (antibody 2): 124.4
[9] = target: recombinant pentameric gH complex (Towne strain) (human cytomegalovirus, Towne strain) (UniProt P17176); assay: BLI competition on His-pentamer; competitor (antibody 2): 270.7
[10] = target: recombinant pentameric gH complex (Towne strain) (human cytomegalovirus, Towne strain) (UniProt P17176); assay: BLI competition on His-pentamer; competitor (antibody 2): 1-32
[11] = target: CMV virions; assay: virion ELISA
[12] = target: recombinant pentameric gH complex (Towne strain) (human cytomegalovirus, Towne strain) (UniProt P17176); assay: BLI competition on His-pentamer; competitor (antibody 2): 70.7
[13] = target: recombinant pentameric gH complex (Towne strain) (human cytomegalovirus, Towne strain) (UniProt P17176); assay: BLI competition on His-pentamer; competitor (antibody 2): 3-15
[14] = target: recombinant pentameric gH complex (Towne strain) (human cytomegalovirus, Towne strain) (UniProt P17176); assay: BLI competition on His-pentamer; competitor (antibody 2): 276.1
[15] = target: recombinant pentameric gH complex (Towne strain) (human cytomegalovirus, Towne strain) (UniProt P17176); assay: BLI competition on His-pentamer; competitor (antibody 2): 316.2
[16] = target: pentameric gH complex on infectious CMV (neutralization assays) (human cytomegalovirus); assay: cell-based or functional assay
[17] = target: recombinant pentameric gH complex (Towne strain) (human cytomegalovirus, Towne strain) (UniProt P17176); assay: BLI competition on His-pentamer; competitor (antibody 2): 2-18
[18] = target: recombinant pentameric gH complex (Towne strain) (human cytomegalovirus, Towne strain) (UniProt P17176); assay: BLI competition on His-pentamer; competitor (antibody 2): 57.4

Sequence of recombinant pentameric gH complex (Towne strain) (human cytomegalovirus, Towne strain) (P17176 30-715, one chain of several): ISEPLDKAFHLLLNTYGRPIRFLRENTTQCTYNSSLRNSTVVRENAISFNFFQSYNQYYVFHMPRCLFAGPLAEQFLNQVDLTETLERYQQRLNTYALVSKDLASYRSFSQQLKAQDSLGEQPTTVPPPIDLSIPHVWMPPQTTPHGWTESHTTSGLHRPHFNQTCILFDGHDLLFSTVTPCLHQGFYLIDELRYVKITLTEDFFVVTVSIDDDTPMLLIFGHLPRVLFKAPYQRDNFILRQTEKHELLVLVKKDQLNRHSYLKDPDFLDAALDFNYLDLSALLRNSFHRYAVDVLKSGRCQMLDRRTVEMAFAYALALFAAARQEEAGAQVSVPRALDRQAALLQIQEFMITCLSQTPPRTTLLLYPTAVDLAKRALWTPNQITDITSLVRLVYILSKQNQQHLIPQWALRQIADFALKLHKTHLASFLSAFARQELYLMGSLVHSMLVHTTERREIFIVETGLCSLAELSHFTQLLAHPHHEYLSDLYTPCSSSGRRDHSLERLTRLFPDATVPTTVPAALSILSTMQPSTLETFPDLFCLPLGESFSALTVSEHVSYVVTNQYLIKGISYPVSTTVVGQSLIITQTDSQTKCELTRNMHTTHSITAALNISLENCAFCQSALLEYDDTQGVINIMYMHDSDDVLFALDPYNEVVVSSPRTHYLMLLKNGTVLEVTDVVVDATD

B1: 3-16 (antibody, V domains shown)
VH: QVQVVQSGAEVKKPGASVMVSCKTSGYRFTIYSIAWMRQAPGQGLEWMGSINTYNGNTKYAEKFQGRVTMSRDTSTSTAYMEVRSLGSADTAMYYCARDAENWGFFDDWGQGTLVTVSS
VL: EIVLTQSPGTVSLSPGERVTLSCRASQSVGRHLAWYQQKPGQPPRLLIYGASTRATGVPDRFSGSGSETEFTLAISSLQSEDFALYYCQQYNTWPYTFGQGTKLEIK
For B1, which Pair-wise inhibition (%) [1] is on record?
The Pair-wise inhibition (%) was -21%.

What about the Pair-wise inhibition (%) [2] of the same binder?
The Pair-wise inhibition (%) was -22%.

What about the Pair-wise inhibition (%) [3] of the same binder?
Its Pair-wise inhibition (%) is 79%.

What about the Pair-wise inhibition (%) [4] of the same binder?
The Pair-wise inhibition (%) was -5%.

And the Pair-wise inhibition (%) [5]?
The Pair-wise inhibition (%) was 16%.

And the Pair-wise inhibition (%) [6]?
The Pair-wise inhibition (%) was 6%.

What about the Pair-wise inhibition (%) [7] of the same binder?
The Pair-wise inhibition (%) was 88%.

What about the Pair-wise inhibition (%) [8] of the same binder?
Its Pair-wise inhibition (%) is -1%.

And the Pair-wise inhibition (%) [9]?
The Pair-wise inhibition (%) was -1%.

And the Pair-wise inhibition (%) [10]?
The Pair-wise inhibition (%) was -5%.

What about the EC50 [11] of the same binder?
Its EC50 is 0.1 µg/mL.

What about the Pair-wise inhibition (%) [12] of the same binder?
The Pair-wise inhibition (%) was 2%.

And the Pair-wise inhibition (%) [13]?
Its Pair-wise inhibition (%) is 95%.

And the Pair-wise inhibition (%) [14]?
The Pair-wise inhibition (%) was 18%.

What about the Pair-wise inhibition (%) [15] of the same binder?
Its Pair-wise inhibition (%) is -7%.

What about the EC50 Neutralizing [16] of the same binder?
The EC50 Neutralizing was 0.09 µg/mL.

What about the IC50 in ARPE-19 [16] of the same binder?
Its IC50 in ARPE-19 is 0.017 µg/mL.

And the IC50 in MRC-5 [16]?
The IC50 in MRC-5 was 0.037 µg/mL.

And the Pair-wise inhibition (%) [17]?
The Pair-wise inhibition (%) was -17%.

What about the Pair-wise inhibition (%) [18] of the same binder?
Its Pair-wise inhibition (%) is 11%.

B2: 2-18 (antibody, V domains shown)
VH: EVQLVQSGGGLVQPGGSLRVSCAASGFSFSDHDMDWVRQAPGKGFEWVGRSRNKDYSSTTEYAASVRGRFTISRHTSEDLLYLELNTVKTEDTAVYFCARGPHHSDRSGYYGGTFDIWGQGTMVTVSS
VL: DIQMTQSPSSVSASVGDRVIITCRASQGISSWLAWYQQKPGRAPRLLIYDASTLESGVPSRFSGRGSGTEFTLTINSLQPEDFATYYCQQGNMFPLTFGGGTKVEIK
With B2 as the binder, how does the Pair-wise inhibition (%) [1] read?
The Pair-wise inhibition (%) was 117%.

What about the Pair-wise inhibition (%) [2] of the same binder?
Its Pair-wise inhibition (%) is 12%.

And the Pair-wise inhibition (%) [3]?
Its Pair-wise inhibition (%) is 16%.

And the Pair-wise inhibition (%) [4]?
The Pair-wise inhibition (%) was -1%.

And the Pair-wise inhibition (%) [5]?
Its Pair-wise inhibition (%) is 10%.

And the Pair-wise inhibition (%) [6]?
Its Pair-wise inhibition (%) is 8%.

And the Pair-wise inhibition (%) [7]?
Its Pair-wise inhibition (%) is 17%.

What about the Pair-wise inhibition (%) [8] of the same binder?
The Pair-wise inhibition (%) was -11%.

What about the Pair-wise inhibition (%) [9] of the same binder?
Its Pair-wise inhibition (%) is -6%.

And the Pair-wise inhibition (%) [10]?
Its Pair-wise inhibition (%) is -1%.

And the EC50 [11]?
Its EC50 is 0.09 µg/mL.

What about the Pair-wise inhibition (%) [12] of the same binder?
The Pair-wise inhibition (%) was 6%.

And the Pair-wise inhibition (%) [13]?
Its Pair-wise inhibition (%) is 15%.

And the Pair-wise inhibition (%) [14]?
The Pair-wise inhibition (%) was -31%.

And the Pair-wise inhibition (%) [15]?
The Pair-wise inhibition (%) was 3%.

And the EC50 Neutralizing [16]?
Its EC50 Neutralizing is 0.0009 µg/mL.

What about the IC50 in ARPE-19 [16] of the same binder?
Its IC50 in ARPE-19 is 0.00018 µg/mL.

What about the Pair-wise inhibition (%) [17] of the same binder?
The Pair-wise inhibition (%) was 97%.

What about the Pair-wise inhibition (%) [18] of the same binder?
Its Pair-wise inhibition (%) is 8%.

B3: 1-103 (antibody, V domains shown)
VH: QLQLQESGPGLVKPSETLSLTCSVSGDAISGSNYYWGWIRQPPGKGLQWIGSIYHTGSTFYNPSFSSRVTLSVDTSKNQFSLKLISVNAADTAVYYCARRIRGYSGTYDWGQGTLVTVSS
VL: DIQLTQSPSFLSASVGDRVTITCRASQDISSYVAWYQQKPGNAPKLLISSASTLPSGVPSRFSGSRSGTDFTLTISSLQPEDFATYYCQQLNNFGPGTTVDIK
What does the source list for B3?
Pair-wise inhibition (%) [1]: -20%; Pair-wise inhibition (%) [2]: -49%; Pair-wise inhibition (%) [3]: -12%; Pair-wise inhibition (%) [4]: -19%; Pair-wise inhibition (%) [5]: 6%; Pair-wise inhibition (%) [6]: 89%; Pair-wise inhibition (%) [7]: -38%; Pair-wise inhibition (%) [8]: -22%; Pair-wise inhibition (%) [9]: -35%; Pair-wise inhibition (%) [10]: -12%; EC50 [11]: 0.2 µg/mL; Pair-wise inhibition (%) [12]: -31%; Pair-wise inhibition (%) [13]: -7%; Pair-wise inhibition (%) [14]: -2%; Pair-wise inhibition (%) [15]: -28%; EC50 Neutralizing [16]: 0.004 µg/mL; IC50 in ARPE-19 [16]: 0.00088 µg/mL; Pair-wise inhibition (%) [17]: -10%; Pair-wise inhibition (%) [18]: -4%
